Measurements reported in article PMC3578932, “In Vitro Characterization of Echinomycin Biosynthesis: Formation and Hydroxylation of L-Tryptophanyl-S-Enzyme and Oxidation of (2S,3S) β-Hydroxytryptophan” (PLoS ONE, 2013).

Tests used:
[1] = molecular target: T1, Qui5 and holo-Qui18 coexpression product (complex) (Streptomyces griseovariabilis, UniProt G9JKM4); assay: Q-TOF-MS of amino acid loading onto holo-Qui18; format: biochemical; conditions: covalent; thioester to 4'-phosphopantetheine of the PCP domain; 5 mM L-tryptophan, 5 mM ATP, 10 mM MgCl2, 2 mM DTT, pH 8.0, 27°C, 2 hr
T1 construct: full-length A-PCP didomain Qui18 (611 aa) and Qui5 (71 aa), both His6-tagged, coexpressed in E. coli BL21(DE3) with B. subtilis sfp; holo form 64,836 Da (4'-phosphopantetheine on PCP Ser); hetero-tetramer about 160 kD; with MbtH-like protein

[2] = molecular target: A-PCP didomain NRPS protein Qui18 (Streptomyces griseovariabilis subsp. bandungensis subsp. nov) (UniProt G9JKM4); assay: SEC; copurified His6-tagged Qui5 and Qui18 from coexpression; peak at around 160 kD; fraction analysed by SDS-PAGE (data not shown); conditions: scale: subunits of Qui5 with 2 subunits of Qui18
[3] = molecular target: tryptophan 2,3-dioxygenase Qui17 (Streptomyces griseovariabilis subsp. bandungensis subsp. nov); assay: SEC; purified His-tagged Qui17; data not shown

N[C@@H](Cc1c[nH]c2ccccc12)C(=O)O [L-tryptophan]
Q-TOF-MS of amino acid loading onto holo-Qui18 [1]: Qui18 recognized L-tryptophan as its substrate and its function depended on the association with Qui5

MbtH-like protein Qui5 (natural protein)
stoichiometry N [2]: 2

tryptophan 2,3-dioxygenase Qui17 (enzyme)
stoichiometry N [3]: 4
